Data as given in article PMC10786891, “Massively parallel profiling of RNA-targeting CRISPR-Cas13d”.

B1: target 3 insG 3' of 7 (mixed)
RNA 1: CACCCGUGCAAAAUUGCAGGGGUCUAAAACGACCUGAAUAUUUCAGAUCAAA
RNA 2: GGGAAUGGAUCCACAUCUACGAAUUCGUUUUUGAUCUGAAAUAUUGCAGGUCUGCAGAUCGGAAGAGCACACGU
B2: target 3 insU 3' of 22,insG 3' of 6 (mixed)
RNA 1: CACCCGUGCAAAAUUGCAGGGGUCUAAAACGACCUGAAUAUUUCAGAUCAAA
RNA 2: GGGAAUGGAUCCACAUCUACGAAUUCGUUUUUUGAUCUGAAAUAUUCGAGGUCUGCAGAUCGGAAGAGCACACGU
B3: target 3 insC 3' of 9,insG 3' of 6 (mixed)
RNA 1: CACCCGUGCAAAAUUGCAGGGGUCUAAAACGACCUGAAUAUUUCAGAUCAAA
RNA 2: GGGAAUGGAUCCACAUCUACGAAUUCGUUUUUGAUCUGAAAUACUUCGAGGUCUGCAGAUCGGAAGAGCACACGU
B4: target 3 C1A,U22A (mixed)
RNA 1: CACCCGUGCAAAAUUGCAGGGGUCUAAAACGACCUGAAUAUUUCAGAUCAAA
RNA 2: GGGAAUGGAUCCACAUCUACGAAUUCGUUAUUGAUCUGAAAUAUUCAGGUAUGCAGAUCGGAAGAGCACACGU
B5: target 1 insU 3' of 14,insC 3' of 5 (mixed)
RNA 1: CACCCGUGCAAAAAUGCAGGGGUCUAAAACUGAGCGGAUAACCUCUCUAUGG
RNA 2: GGGAAUGGAUCCACAUCUACGAAUUCGUACCAUAGAGAUGGUUAUCCGCCUCACCGAGAUCGGAAGAGCACACGU
B6: target 1 U10G,A18U (mixed)
RNA 1: CACCCGUGCAAAAAUGCAGGGGUCUAAAACUGAGCGGAUAACCUCUCUAUGG
RNA 2: GGGAAUGGAUCCACAUCUACGAAUUCGUACCAUUGAGAGGUGAUCCGCUCACCGAGAUCGGAAGAGCACACGU
B7: target 3 C1G,U8G (mixed)
RNA 1: CACCCGUGCAAAAUUGCAGGGGUCUAAAACGACCUGAAUAUUUCAGAUCAAA
RNA 2: GGGAAUGGAUCCACAUCUACGAAUUCGUUUUUGAUCUGAAAUAGUCAGGUGUGCAGAUCGGAAGAGCACACGU
B8: target 3 U22A (mixed)
RNA 1: CACCCGUGCAAAAUUGCAGGGGUCUAAAACGACCUGAAUAUUUCAGAUCAAA
RNA 2: GGGAAUGGAUCCACAUCUACGAAUUCGUUAUUGAUCUGAAAUAUUCAGGUCUGCAGAUCGGAAGAGCACACGU
B9: target 3 A5G,U7G (mixed)
RNA 1: CACCCGUGCAAAAUUGCAGGGGUCUAAAACGACCUGAAUAUUUCAGAUCAAA
RNA 2: GGGAAUGGAUCCACAUCUACGAAUUCGUUUUUGAUCUGAAAUAUGCGGGUCUGCAGAUCGGAAGAGCACACGU
B10: target 3 insA 3' of 8,insG 3' of 5 (mixed)
RNA 1: CACCCGUGCAAAAUUGCAGGGGUCUAAAACGACCUGAAUAUUUCAGAUCAAA
RNA 2: GGGAAUGGAUCCACAUCUACGAAUUCGUUUUUGAUCUGAAAUAUAUCAGGGUCUGCAGAUCGGAAGAGCACACGU
B11: target 3 C1G,U22A (mixed)
RNA 1: CACCCGUGCAAAAUUGCAGGGGUCUAAAACGACCUGAAUAUUUCAGAUCAAA
RNA 2: GGGAAUGGAUCCACAUCUACGAAUUCGUUAUUGAUCUGAAAUAUUCAGGUGUGCAGAUCGGAAGAGCACACGU
B12: target 3 insA 3' of 14 (mixed)
RNA 1: CACCCGUGCAAAAUUGCAGGGGUCUAAAACGACCUGAAUAUUUCAGAUCAAA
RNA 2: GGGAAUGGAUCCACAUCUACGAAUUCGUUUUUGAUCUGAAAAUAUUCAGGUCUGCAGAUCGGAAGAGCACACGU
B13: target 3 C6A,U22C (mixed)
RNA 1: CACCCGUGCAAAAUUGCAGGGGUCUAAAACGACCUGAAUAUUUCAGAUCAAA
RNA 2: GGGAAUGGAUCCACAUCUACGAAUUCGUUCUUGAUCUGAAAUAUUAAGGUCUGCAGAUCGGAAGAGCACACGU
B14: target 3 C1U,C16U (mixed)
RNA 1: CACCCGUGCAAAAUUGCAGGGGUCUAAAACGACCUGAAUAUUUCAGAUCAAA
RNA 2: GGGAAUGGAUCCACAUCUACGAAUUCGUUUUUGAUUUGAAAUAUUCAGGUUUGCAGAUCGGAAGAGCACACGU
B15: target 3 G4C,C6G (mixed)
RNA 1: CACCCGUGCAAAAUUGCAGGGGUCUAAAACGACCUGAAUAUUUCAGAUCAAA
RNA 2: GGGAAUGGAUCCACAUCUACGAAUUCGUUUUUGAUCUGAAAUAUUGACGUCUGCAGAUCGGAAGAGCACACGU
B16: target 3 A18G,U22C (mixed)
RNA 1: CACCCGUGCAAAAUUGCAGGGGUCUAAAACGACCUGAAUAUUUCAGAUCAAA
RNA 2: GGGAAUGGAUCCACAUCUACGAAUUCGUUCUUGGUCUGAAAUAUUCAGGUCUGCAGAUCGGAAGAGCACACGU
B17: target 1 C6U,U8G (mixed)
RNA 1: CACCCGUGCAAAAAUGCAGGGGUCUAAAACUGAGCGGAUAACCUCUCUAUGG
RNA 2: GGGAAUGGAUCCACAUCUACGAAUUCGUACCAUAGAGAGGUUAGCUGCUCACCGAGAUCGGAAGAGCACACGU
B18: target 3 insA 3' of 10,insG 3' of 7 (mixed)
RNA 1: CACCCGUGCAAAAUUGCAGGGGUCUAAAACGACCUGAAUAUUUCAGAUCAAA
RNA 2: GGGAAUGGAUCCACAUCUACGAAUUCGUUUUUGAUCUGAAAUAAUUGCAGGUCUGCAGAUCGGAAGAGCACACGU
B19: target 3 insU 3' of 5,insU 3' of 1 (mixed)
RNA 1: CACCCGUGCAAAAUUGCAGGGGUCUAAAACGACCUGAAUAUUUCAGAUCAAA
RNA 2: GGGAAUGGAUCCACAUCUACGAAUUCGUUUUUGAUCUGAAAUAUUCAUGGUCUUGCAGAUCGGAAGAGCACACGU
B20: target 3 U2A,A5C (mixed)
RNA 1: CACCCGUGCAAAAUUGCAGGGGUCUAAAACGACCUGAAUAUUUCAGAUCAAA
RNA 2: GGGAAUGGAUCCACAUCUACGAAUUCGUUUUUGAUCUGAAAUAUUCCGGACUGCAGAUCGGAAGAGCACACGU
B21: target 3 insG 3' of 9,insG 3' of 9 (mixed)
RNA 1: CACCCGUGCAAAAUUGCAGGGGUCUAAAACGACCUGAAUAUUUCAGAUCAAA
RNA 2: GGGAAUGGAUCCACAUCUACGAAUUCGUUUUUGAUCUGAAAUAGGUUCAGGUCUGCAGAUCGGAAGAGCACACGU
B22: target 3 A5C,U8G (mixed)
RNA 1: CACCCGUGCAAAAUUGCAGGGGUCUAAAACGACCUGAAUAUUUCAGAUCAAA
RNA 2: GGGAAUGGAUCCACAUCUACGAAUUCGUUUUUGAUCUGAAAUAGUCCGGUCUGCAGAUCGGAAGAGCACACGU
B23: target 3 insU 3' of 5,insA 3' of 1 (mixed)
RNA 1: CACCCGUGCAAAAUUGCAGGGGUCUAAAACGACCUGAAUAUUUCAGAUCAAA
RNA 2: GGGAAUGGAUCCACAUCUACGAAUUCGUUUUUGAUCUGAAAUAUUCAUGGUCAUGCAGAUCGGAAGAGCACACGU
B24: target 3 G4A,A5G (mixed)
RNA 1: CACCCGUGCAAAAUUGCAGGGGUCUAAAACGACCUGAAUAUUUCAGAUCAAA
RNA 2: GGGAAUGGAUCCACAUCUACGAAUUCGUUUUUGAUCUGAAAUAUUCGAGUCUGCAGAUCGGAAGAGCACACGU
B25: target 3 insU 3' of 5,insC 3' of 2 (mixed)
RNA 1: CACCCGUGCAAAAUUGCAGGGGUCUAAAACGACCUGAAUAUUUCAGAUCAAA
RNA 2: GGGAAUGGAUCCACAUCUACGAAUUCGUUUUUGAUCUGAAAUAUUCAUGGUCCUGCAGAUCGGAAGAGCACACGU
B26: target 3 insU 3' of 5,insG 3' of 1 (mixed)
RNA 1: CACCCGUGCAAAAUUGCAGGGGUCUAAAACGACCUGAAUAUUUCAGAUCAAA
RNA 2: GGGAAUGGAUCCACAUCUACGAAUUCGUUUUUGAUCUGAAAUAUUCAUGGUCGUGCAGAUCGGAAGAGCACACGU
B27: target 3 insG 3' of 2,insU 3' of 1 (mixed)
RNA 1: CACCCGUGCAAAAUUGCAGGGGUCUAAAACGACCUGAAUAUUUCAGAUCAAA
RNA 2: GGGAAUGGAUCCACAUCUACGAAUUCGUUUUUGAUCUGAAAUAUUCAGGUGCUUGCAGAUCGGAAGAGCACACGU
B28: target 1 U11G,G13C (mixed)
RNA 1: CACCCGUGCAAAAAUGCAGGGGUCUAAAACUGAGCGGAUAACCUCUCUAUGG
RNA 2: GGGAAUGGAUCCACAUCUACGAAUUCGUACCAUAGAGACGGUAUCCGCUCACCGAGAUCGGAAGAGCACACGU

Target: T1, EsCas13d, nuclease-dead (Eubacterium siraeum, UniProt B0MS50, R295A;H300A;R849A;H854A)
T1 sequence: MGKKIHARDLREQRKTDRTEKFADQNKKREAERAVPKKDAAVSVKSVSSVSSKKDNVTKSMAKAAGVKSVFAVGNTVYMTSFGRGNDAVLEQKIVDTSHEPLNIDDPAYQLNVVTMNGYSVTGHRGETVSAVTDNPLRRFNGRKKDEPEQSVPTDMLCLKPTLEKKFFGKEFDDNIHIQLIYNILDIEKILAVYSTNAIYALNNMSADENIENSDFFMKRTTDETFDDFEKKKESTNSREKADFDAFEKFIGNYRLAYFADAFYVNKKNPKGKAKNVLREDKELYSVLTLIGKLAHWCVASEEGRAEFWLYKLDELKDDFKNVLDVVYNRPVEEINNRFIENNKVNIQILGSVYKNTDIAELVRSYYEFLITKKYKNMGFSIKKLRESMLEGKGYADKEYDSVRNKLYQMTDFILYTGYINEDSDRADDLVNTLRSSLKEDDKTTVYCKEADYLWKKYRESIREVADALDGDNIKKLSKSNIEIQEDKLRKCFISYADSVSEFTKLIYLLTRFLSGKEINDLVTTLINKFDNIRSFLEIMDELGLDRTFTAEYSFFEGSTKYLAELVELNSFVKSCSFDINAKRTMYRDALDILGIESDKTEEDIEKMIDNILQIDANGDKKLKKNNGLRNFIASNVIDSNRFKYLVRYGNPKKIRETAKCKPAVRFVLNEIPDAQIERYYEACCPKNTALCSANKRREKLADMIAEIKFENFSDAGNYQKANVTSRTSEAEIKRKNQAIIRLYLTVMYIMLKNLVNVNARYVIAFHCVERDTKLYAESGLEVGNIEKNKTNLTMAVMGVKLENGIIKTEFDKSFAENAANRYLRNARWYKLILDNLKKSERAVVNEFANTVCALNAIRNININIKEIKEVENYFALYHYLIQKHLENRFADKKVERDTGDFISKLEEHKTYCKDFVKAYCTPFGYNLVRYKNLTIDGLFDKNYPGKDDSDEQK
Test: crRNA (strand 1, pre-loaded); Mg2+; 40 mM Tris-HCl pH 7.5, 150 mM NaCl, 6 mM MgCl2, 1 mM DTT, 0.1% Tween-20, 0.2 mg/ml BSA; 25 C; 10 min per concentration, then washed
Conditions: tags: His6-TwinStrep-SUMO cleaved; N-terminal SNAP kept (SNAP-Surface 488); label: 3' end held by stalled T7 RNA polymerase

Binder	Kd [nM]
B1	65.5 ± 13.5
B2	7.7 ± 0.65
B3	89 ± 23.5
B4	13.6 ± 1.9
B5	~60
B6	57 ± 9
B7	35 ± 6
B8	14.8 ± 1.45
B9	44 ± 6
B10	68 ± 15
B11	25.1 ± 5.2
B12	60 ± 12
B13	49.5 ± 7.5
B14	66.5 ± 15.5
B15	24.1 ± 3.15
B16	13.8 ± 2
B17	11 ± 0.5
B18	73.5 ± 9.5
B19	31 ± 10
B20	47.6 ± 10.6
B21	102 ± 21
B22	74 ± 12
B23	36.5 ± 10.5
B24	19.5 ± 1.7
B25	40.5 ± 6
B26	27 ± 4.5
B27	67.5 ± 9
B28	~70
